Five variants from IntAct's records for PubMed 33053355 can be followed below.

The chains are these.
B1: GRB10-interacting GYF protein 2 (Homo sapiens), Q6Y7W6-1 (parent)
chain: MAAETQTLNFGPEWLRALSSGGSITSPPLSPALPKYKLADYRYGREEMLALFLKDNKIPSDLLDKEFLPILQEEPLPPLALVPFTEEEQRNFSMSVNSAAVLRLTGRGGGGTVVGAPRGRSSSRGRGRGRGECGFYQRSFDEVEGVFGRGGGREMHRSQSWEERGDRRFEKPGRKDVGRPNFEEGGPTSVGRKHEFIRSESENWRIFREEQNGEDEDGGWRLAGSRRDGERWRPHSPDGPRSAGWREHMERRRRFEFDFRDRDDERGYRRVRSGSGSIDDDRDSLPEWCLEDAEEEMGTFDSSGAFLSLKKVQKEPIPEEQEMDFRPVDEGEECSDSEGSHNEEAKEPDKTNKKEGEKTDRVGVEASEETPQTSSSSARPGTPSDHQSQEASQFERKDEPKTEQTEKAEEETRMENSLPAKVPSRGDEMVADVQQPLSQIPSDTASPLLILPPPVPNPSPTLRPVETPVVGAPGMGSVSTEPDDEEGLKHLEQQAEKMVAYLQDSALDDERLASKLQEHRAKGVSIPLMHEAMQKWYYKDPQGEIQGPFNNQEMAEWFQAGYFTMSLLVKRACDESFQPLGDIMKMWGRVPFSPGPAPPPHMGELDQERLTRQQELTALYQMQHLQYQQFLIQQQYAQVLAQQQKAALSSQQQQQLALLLQQFQTLKMRISDQNIIPSVTRSVSVPDTGSIWELQPTASQPTVWEGGSVWDLPLDTTTPGPALEQLQQLEKAKAAKLEQERREAEMRAKREEEERKRQEELRRQQEEILRRQQEEERKRREEEELARRKQEEALRRQREQEIALRRQREEEERQQQEEALRRLEERRREEEERRKQEELLRKQEEEAAKWAREEEEAQRRLEENRLRMEEEAARLRHEEEERKRKELEVQRQKELMRQRQQQQEALRRLQQQQQQQQLAQMKLPSSSTWGQQSNTTACQSQATLSLAEIQKLEEERERQLREEQRRQQRELMKALQQQQQQQQQKLSGWGNVSKPSGTTKSLLEIQQEEARQMQKQQQQQQQHQQPNRARNNTHSNLHTSIGNSVWGSINTGPPNQWASDLVSSIWSNADTKNSNMGFWDDAVKEVGPRNSTNKNKNNASLSKSVGVSNRQNKKVEEEEKLLKLFQGVNKAQDGFTQWCEQMLHALNTANNLDVPTFVSFLKEVESPYEVHDYIRAYLGDTSEAKEFAKQFLERRAKQKANQQRQQQQLPQQQQQQPPQQPPQQPQQQDSVWGMNHSTLHSVFQTNQSNNQQSNFEAVQSGKKKKKQKMVRADPSLLGFSVNASSERLNMGEIETLDDY
B2: GRB10-interacting GYF protein 2 (Homo sapiens), Q6Y7W6-1 (parent)
chain: B1 chain
partner: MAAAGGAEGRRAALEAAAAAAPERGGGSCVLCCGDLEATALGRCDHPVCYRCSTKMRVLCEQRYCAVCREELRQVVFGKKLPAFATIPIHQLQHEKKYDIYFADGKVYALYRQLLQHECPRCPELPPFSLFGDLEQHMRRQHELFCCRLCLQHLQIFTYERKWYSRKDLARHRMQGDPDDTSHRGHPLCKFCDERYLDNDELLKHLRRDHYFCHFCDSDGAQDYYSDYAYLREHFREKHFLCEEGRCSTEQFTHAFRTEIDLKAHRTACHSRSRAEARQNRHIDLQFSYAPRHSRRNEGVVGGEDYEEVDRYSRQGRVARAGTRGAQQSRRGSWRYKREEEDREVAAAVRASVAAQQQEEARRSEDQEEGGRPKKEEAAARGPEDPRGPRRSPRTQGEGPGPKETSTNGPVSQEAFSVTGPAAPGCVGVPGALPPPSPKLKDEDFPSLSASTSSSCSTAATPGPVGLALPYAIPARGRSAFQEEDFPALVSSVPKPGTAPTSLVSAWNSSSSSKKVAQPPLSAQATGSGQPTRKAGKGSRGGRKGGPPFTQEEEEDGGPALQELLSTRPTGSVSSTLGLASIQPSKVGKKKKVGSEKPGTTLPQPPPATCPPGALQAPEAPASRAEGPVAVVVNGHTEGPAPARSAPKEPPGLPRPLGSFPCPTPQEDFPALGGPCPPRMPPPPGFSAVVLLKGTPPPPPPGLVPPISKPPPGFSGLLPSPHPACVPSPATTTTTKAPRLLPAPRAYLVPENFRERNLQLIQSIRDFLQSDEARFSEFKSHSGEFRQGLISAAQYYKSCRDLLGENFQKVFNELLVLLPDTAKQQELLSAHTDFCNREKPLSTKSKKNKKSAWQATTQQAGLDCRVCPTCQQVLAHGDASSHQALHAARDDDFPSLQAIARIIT
B3: GRB10-interacting GYF protein 1 (Homo sapiens), O75420 (parent)
chain: MAAETLNFGPEWLRALSGGGSVASPPPSPAMPKYKLADYRYGREEMLALYVKENKVPEELQDKEFAAVLQDEPLQPLALEPLTEEEQRNFSLSVNSVAVLRLMGKGAGPPLAGTSRGRGSTRSRGRGRGDSCFYQRSIEEGDGAFGRSPREIQRSQSWDDRGERRFEKSARRDGARCGFEEGGAGPRKEHARSDSENWRSLREEQEEEEEGSWRLGAGPRRDGDRWRSASPDGGPRSAGWREHGERRRKFEFDLRGDRGGCGEEEGRGGGGSSHLRRCRAPEGFEEDKDGLPEWCLDDEDEEMGTFDASGAFLPLKKGPKEPIPEEQELDFQGLEEEEEPSEGLEEEGPEAGGKELTPLPPQEEKSSSPSPLPTLGPLWGTNGDGDETAEKEPPAAEDDIRGIQLSPGVGSSAGPPGDLEDDEGLKHLQQEAEKLVASLQDSSLEEEQFTAAMQTQGLRHSAAATALPLSHGAARKWFYKDPQGEIQGPFTTQEMAEWFQAGYFSMSLLVKRGCDEGFQPLGEVIKMWGRVPFAPGPSPPPLLGNMDQERLKKQQELAAAALYQQLQHQQFLQLVSSRQLPQCALREKAALGDLTPPPPPPPQQQQQQLTAFLQQLQALKPPRGGDQNLLPTMSRSLSVPDSGRLWDVHTSASSQSGGEASLWDIPINSSTQGPILEQLQLQHKFQERREVELRAKREEEERKRREEKRRQQQQEEQKRRQEEEELFRRKHVRQQELLLKLLQQQQAVPVPPAPSSPPPLWAGLAKQGLSMKTLLELQLEGERQLHKQPPPREPARAQAPNHRVQLGGLGTAPLNQWVSEAGPLWGGPDKSGGGSSGLGLWEDTPKSGGSLVRGLGLKNSRSSPSLSDSYSHLSGRPIRKKTEEEEKLLKLLQGIPRPQDGFTQWCEQMLHTLSATGSLDVPMAVAILKEVESPYDVHDYIRSCLGDTLEAKEFAKQFLERRAKQKASQQRQQQQEAWLSSASLQTAFQANHSTKLGPGEGSKAKRRALMLHSDPSILGYSLHGSSGEIESVDDY
partner: B2 partner

Variants of B1 are the subject of the first assay. Conditions: with EIF4E2, O60573-1.
Chain of EIF4E2, O60573-1 (O60573 whole entry): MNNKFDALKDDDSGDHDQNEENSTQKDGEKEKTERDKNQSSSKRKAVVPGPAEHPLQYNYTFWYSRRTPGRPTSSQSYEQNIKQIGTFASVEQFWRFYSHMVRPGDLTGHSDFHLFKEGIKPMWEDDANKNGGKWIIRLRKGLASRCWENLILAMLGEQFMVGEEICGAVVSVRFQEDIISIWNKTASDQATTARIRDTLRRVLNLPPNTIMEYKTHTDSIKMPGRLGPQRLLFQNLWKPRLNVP
As for Y41A;Y43A;M48A;L49A, the “effect of a mutation on the interaction” value is listed as “disrupting interaction strength”. Same read-out and setting: the result for Y538A;F549A;W557A;F563A reads “with no effect”; that for W288A;F300A;F306A, “with no effect”.

The variants in a further assay derive from B1. Conditions: with rl22l_human RPL22L1, Q6P5R6.
Consider Y538A;F549A;W557A;F563A, for which the “effect of a mutation on the interaction” value is “with no effect”.

The variants in the next assay derive from B2. Conditions: with zn598_human ZNF598, Q86UK7.
In the case of Y538A;F549A;W557A;F563A, the “effect of a mutation on the interaction” value is given as “disrupting interaction strength”.

The variants in a further assay derive from B3. As to conditions: with zn598_human ZNF598, Q86UK7.
Turning to Y479A;F490A;W498A;F504A, the “effect of a mutation on the interaction” value is on record as “disrupting interaction strength”.
